Experimental data published in the supplement of paper PMC6755084.

B1: minF1; the commonest letter at each place (parent)
chain: GAGACCGCAACTGAAAAGTTGTTATCAGAAATGGATGGGTTGAATTTCTGCACGTAGAAGCAAAAGGC

Variants of: B1
Test: fraction ligated after 30 min (ligated reads / total reads); higher = more ligase activity
Conditions: with F1*subA RNA substrate (template-directed ligation), 42 °C
Procedure, shortened: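 Minimized ligase ribozyme variants came from oligo-pool templates that were PCR-amplified, T7-transcribed and gel-purified. Their ligated and unligated RNAs were separated on gels before barcoded reverse transcription and MiSeq sequencing, with core bases kept only at quality ≥30. The fraction ligated for each variant is its ligated reads as a proportion of all its reads.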

| Variant | fraction ligated |
| --- | --- |
| T25C A27C | 0.113 |
| T25C A27T | 0.407 |
| T25C A27G | 0.209 |
| C26T G33C | 0.325 |
| C26T G33A | 0.481 |
| C26T G33T | 0.206 |
| A27C T32C | 0.0159 |
| A27C T32G | 0.0136 |
| A27C T32A | 0.0275 |
| T25G A29G | 0.0196 |
| T25G A29T | 0.0188 |
| T25G A29C | 0.0105 |
| C26A A29G | 0.0844 |
| C26A A29C | 0.0944 |
| C26A A29T | 0.112 |
| T25A A35T | 0.458 |
| T25A A35C | 0.0123 |
| T25A A35G | 0.0048 |
| C26A A31T | 0.0701 |
| C26A A31C | 0.0417 |
| C26A A31G | 0.102 |
| C26T A35G | 0.0104 |
| C26T A35T | 0.0022 |
| C26T A35C | 0.00406 |

| Variant | fraction ligated |
| --- | --- |
| A27C G34A | 0.15 |
| A27C G34T | 0.0114 |
| A27C G34C | 0.00877 |
| C26G A30C | 0.0436 |
| C26G A30G | 0.0544 |
| C26G A30T | 0.0435 |
| T25G A30T | 0.0162 |
| T25G A30G | 0.0222 |
| T25G A30C | 0.0106 |
| C26T A27G | 0.544 |
| C26T A27C | 0.79 |
| C26T A27T | 0.816 |
| C26G T32G | 0.00509 |
| C26G T32A | 0.00367 |
| C26G T32C | 0.00208 |
| C26T T32G | 0.00682 |
| C26T T32A | 0.00354 |
| C26T T32C | 0.00511 |
| T25C A31T | 0.0613 |
| T25C A31C | 0.0548 |
| T25C A31G | 0.057 |
| A27C G42T | 0.0494 |
| A27C G42C | 0.0124 |
| A27C G42A | 0.171 |

| Variant | fraction ligated |
| --- | --- |
| T25A G28A | 0.011 |
| T25A G28C | 0.00741 |
| T25A G28T | 0.0157 |
| C26G G34A | 0.0747 |
| C26G G34T | 0.00574 |
| C26G G34C | 0.0293 |
| T25G A35G | 0.00379 |
| T25G A35T | 0.396 |
| T25G A35C | 0.845 |
| T25G A31T | 0.0111 |
| T25G A31C | 0.0154 |
| T25G A31G | 0.0115 |
| T25A G33A | 0.0105 |
| T25A G33T | 0.00763 |
| T25A G33C | 0.00366 |
| T25A G37A | 0.00183 |
| T25A G37C | 0.00598 |
| T25A G37T | 0.00505 |
| A27C A30C | 0.465 |
| A27C A30T | 0.403 |
| A27C A30G | 0.759 |
| A27C G33A | 0.835 |
| A27C G33C | 0.817 |
| A27C G33T | 0.818 |

| Variant | fraction ligated |
| --- | --- |
| C26T T36A | 0.0132 |
| C26T T36C | 0.00419 |
| C26T T36G | 0.0188 |
| A27C A43G | 0.0284 |
| A27C A43C | 0.0394 |
| A27C A43T | 0.0472 |
| T25C A29G | 0.0416 |
| T25C A29T | 0.0467 |
| T25C A29C | 0.0251 |
| T25C G42A | 0.00331 |
| T25C G42T | 0.00269 |
| T25C G42C | 0.00383 |
| A27C G28C | 0.61 |
| A27C G28T | 0.628 |
| A27C G28A | 0.503 |
| A27C G37T | 0.0224 |
| A27C G37C | 0.004 |
| A27C G37A | 0.0106 |
| T25C G33T | 0.0306 |
| T25C G33C | 0.0119 |
| T25C G33A | 0.0508 |
| C26A G42A | 0.00533 |
| C26A G42T | 0.00182 |
| C26A G42C | 0.00168 |

| Variant | fraction ligated |
| --- | --- |
| C26G A31T | 0.0387 |
| C26G A31C | 0.0238 |
| C26G A31G | 0.0731 |
| C26A T36C | 0.00707 |
| C26A T36G | 0.0133 |
| C26A T36A | 0.0039 |
| C26A G33A | 0.19 |
| C26A G33T | 0.0279 |
| C26A G33C | 0.0427 |
| C26T G28C | 0.61 |
| C26T G28T | 0.55 |
| C26T G28A | 0.362 |
| T25C C26T | 0.079 |
| T25C C26G | 0.00975 |
| T25C C26A | 0.00962 |
| C26G A27C | 0.0501 |
| C26G A27T | 0.0725 |
| C26G A27G | 0.0369 |
| A24T T25A | 0.0063 |
| A24T T25C | 0.0313 |
| A24T T25G | 0.00899 |
| T25C G34A | 0.00778 |
| T25C G34T | 0.00336 |
| T25C G34C | 0.00188 |

| Variant | fraction ligated |
| --- | --- |
| C26G G33A | 0.0636 |
| C26G G33T | 0.0124 |
| C26G G33C | 0.00704 |
| A27G A31T | 0.816 |
| A27G A31G | 0.806 |
| A27G A31C | 0.802 |
| C26A T32C | 0.0036 |
| C26A T32A | 0.00455 |
| C26A T32G | 0.00324 |
| C26T G37C | 0.00325 |
| C26T G37T | 0.00513 |
| C26T G37A | 0.00482 |
| T25A A44C | 0.00273 |
| T25A A44G | 0.00172 |
| T25A A44T | 0.0103 |
| T25A A31C | 0.00883 |
| T25A A31G | 0.0139 |
| T25A A31T | 0.00708 |
| T25G G34C | 0.00366 |
| T25G G34T | 0.0038 |
| T25G G34A | 0.00816 |
| T25G T36A | 0.0107 |
| T25G T36C | 0.00768 |
| T25G T36G | 0.0257 |

| Variant | fraction ligated |
| --- | --- |
| C26T G42A | 0.0165 |
| C26T G42T | 0.00392 |
| C26T G42C | 0.00245 |
| C26T G34A | 0.623 |
| C26T G34T | 0.0063 |
| C26T G34C | 0.00303 |
| T25G | 0.0165 |
| T25A | 0.00703 |
| T25C | 0.0278 |
| C26G A35T | 0.000597 |
| C26G A35G | 0.00566 |
| C26G A35C | 0.00486 |
| C26G T36G | 0.00843 |
| C26G T36A | 0.00192 |
| C26G T36C | 0.00195 |
| C26A G34C | 0.00194 |
| C26A G34A | 0.0394 |
| C26A G34T | 0.00758 |
| A24T G37T | 0.00399 |
| T25C T36G | 0.0541 |
| T25C T36A | 0.0394 |
| T25C T36C | 0.00974 |
| T25A A27G | 0.0139 |
